Experimental data: IntAct's records for PubMed 20498078

Legend:
pcd15_mouse Pcdh15 = pcd15_mouse Pcdh15 (UniProt Q99PJ1)
Chain of pcd15_mouse Pcdh15 (Q99PJ1 whole entry): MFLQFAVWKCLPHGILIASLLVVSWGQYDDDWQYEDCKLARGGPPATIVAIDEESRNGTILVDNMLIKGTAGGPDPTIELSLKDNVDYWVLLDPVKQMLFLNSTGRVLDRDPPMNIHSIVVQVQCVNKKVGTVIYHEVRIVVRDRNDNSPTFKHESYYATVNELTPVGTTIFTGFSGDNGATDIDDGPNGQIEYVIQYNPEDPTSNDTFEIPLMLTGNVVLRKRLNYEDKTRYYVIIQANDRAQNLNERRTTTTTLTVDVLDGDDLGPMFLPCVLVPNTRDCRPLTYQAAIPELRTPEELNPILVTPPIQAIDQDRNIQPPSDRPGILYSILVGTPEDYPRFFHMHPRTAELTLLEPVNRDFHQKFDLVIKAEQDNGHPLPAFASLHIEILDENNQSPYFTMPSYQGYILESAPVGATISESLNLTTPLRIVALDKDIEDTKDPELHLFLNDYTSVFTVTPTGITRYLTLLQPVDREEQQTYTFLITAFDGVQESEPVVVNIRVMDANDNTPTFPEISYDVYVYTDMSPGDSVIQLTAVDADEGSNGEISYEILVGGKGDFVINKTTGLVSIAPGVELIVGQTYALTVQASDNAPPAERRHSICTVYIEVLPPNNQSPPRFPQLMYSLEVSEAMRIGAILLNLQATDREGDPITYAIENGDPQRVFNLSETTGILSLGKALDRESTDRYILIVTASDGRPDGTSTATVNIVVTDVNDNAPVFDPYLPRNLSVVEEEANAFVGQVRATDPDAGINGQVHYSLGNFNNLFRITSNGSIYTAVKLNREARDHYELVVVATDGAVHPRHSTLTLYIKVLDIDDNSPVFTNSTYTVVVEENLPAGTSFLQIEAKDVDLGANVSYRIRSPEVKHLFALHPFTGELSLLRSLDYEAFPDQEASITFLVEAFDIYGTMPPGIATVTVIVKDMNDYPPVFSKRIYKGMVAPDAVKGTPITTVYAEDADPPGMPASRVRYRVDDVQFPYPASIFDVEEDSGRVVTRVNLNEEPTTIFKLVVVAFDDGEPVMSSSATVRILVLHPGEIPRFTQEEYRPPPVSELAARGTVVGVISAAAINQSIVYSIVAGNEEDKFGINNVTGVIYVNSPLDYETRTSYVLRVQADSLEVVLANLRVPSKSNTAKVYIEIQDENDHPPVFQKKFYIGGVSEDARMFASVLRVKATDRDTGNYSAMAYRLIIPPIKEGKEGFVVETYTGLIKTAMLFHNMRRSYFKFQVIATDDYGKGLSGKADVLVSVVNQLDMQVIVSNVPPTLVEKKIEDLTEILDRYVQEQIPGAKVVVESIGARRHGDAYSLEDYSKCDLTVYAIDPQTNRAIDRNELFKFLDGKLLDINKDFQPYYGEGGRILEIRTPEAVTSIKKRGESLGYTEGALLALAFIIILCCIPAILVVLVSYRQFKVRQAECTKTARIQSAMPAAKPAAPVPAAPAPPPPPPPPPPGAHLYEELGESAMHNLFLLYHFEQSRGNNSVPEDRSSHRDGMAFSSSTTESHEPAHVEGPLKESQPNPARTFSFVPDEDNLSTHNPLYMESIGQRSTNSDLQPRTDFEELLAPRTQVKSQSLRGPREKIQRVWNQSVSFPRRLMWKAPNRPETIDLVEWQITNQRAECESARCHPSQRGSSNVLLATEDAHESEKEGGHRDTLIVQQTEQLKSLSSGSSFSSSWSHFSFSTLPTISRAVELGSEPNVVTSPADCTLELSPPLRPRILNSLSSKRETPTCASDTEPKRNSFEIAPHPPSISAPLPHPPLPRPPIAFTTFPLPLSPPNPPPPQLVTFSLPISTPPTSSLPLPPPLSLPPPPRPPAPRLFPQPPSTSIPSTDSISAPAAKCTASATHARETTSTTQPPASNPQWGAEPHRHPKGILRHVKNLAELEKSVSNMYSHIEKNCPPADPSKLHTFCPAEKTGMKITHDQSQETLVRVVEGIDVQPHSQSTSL

| effect of a mutation on the interaction (pcd15_mouse Pcdh15) | effect of a mutation on the interaction (Cdh23, Q99PF4-1) | Substance |
| --- | --- | --- |
| decreasing interaction | – | Cadherin-23 (Mus musculus), Q99PF4-1 N26I;R27I |
| – | decreasing interaction | Protocadherin-15 (Mus musculus), Q99PJ1 E35I;D36A |
| decreasing interaction | – | Cadherin-23 (Mus musculus), Q99PF4-1 N26I |
| decreasing interaction | – | Cadherin-23 (Mus musculus), Q99PF4-1 R27I |
